Consider 6 variants from FireProtDB (doi:10.1093/protein/gzi051).

B1: Alpha-lactalbumin, P00711 (parent)
chain: MMSFVSLLLVGILFHATQAEQLTKCEVFRELKDLKGYGGVSLPEWVCTTFHTSGYDTQAIVQNNDSTEYGLFQINNKIWCKDDQNPHSSNICNISCDKFLDDDLTDDIMCVKKILDKVGINYWLAHKALCSEKLDQWLCEKL

The variants in this data set derive from B1. The following applies: Bos taurus, pH 7.7, Thermal, Fluorescence, HEPES-KOH 10 mM, structure 1HFZ, whole UniProt chain shown.

What is called Tm is the temperature at which the thermal transition is half complete. With MMSFVSLLLVGILFHATQAEQLTKCEVFRLLKDLKGYGGVSLPEWVCTTFHTSGYDTQAIVQNNDSTEYGLFQINNKIWCKDDQNPHSSNICNISCDKFLDDDLTDDIMCVKKILDKVGINYWLAHKALCSEKLDQWLCEKL [E30L], the Tm came to 27.5 °C.

Take MMSFVSLLLVGILFHATQAEQLTKCQVFRELKDLKGYGGVSLPEWVCTTFHTSGYDTQAIVQNNDSTEYGLFQINNKIWCKDDQNPHSSNICNISCDKFLDDDLTDDIMCVKKILDKVGINYWLAHKALCSEKLDQWLCEKL [E26Q]: the Tm was 27 °C. Also, under “CaCl2 1 mM”, the Tm worked out at 67.7 °C and the “change of melting temperature, mutant - wild type (higher = more stable)” value (“change of melting temperature, mutant” for short) is 7.9 °C.

Turning to MMSFVSLLLVGILFHATQAQQLTKCEVFRELKDLKGYGGVSLPEWVCTTFHTSGYDTQAIVQNNDSTEYGLFQINNKIWCKDDQNPHSSNICNISCDKFLDDDLTDDIMCVKKILDKVGINYWLAHKALCSEKLDQWLCEKL [E20Q], the Tm was 23.5 °C.

On to MMSFVSLLLVGILFHATQAMQLTKCEVFRELKDLKGYGGVSLPEWVCTTFHTSGYDTQAIVQNNDSTEYGLFQINNKIWCKDDQNPHSSNICNISCDKFLDDDLTDDIMCVKKILDKVGINYWLAHKALCSEKLDQWLCEKL [E20M], for which the Tm came to 36.8 °C. Also, where the note is “CaCl2 1 mM”, the Tm worked out at 69.8 °C and the “change of melting temperature, mutant” value came to 10 °C.

Take MMSFVSLLLVGILFHATQAEQLTKCEVFRELKDLKGYGGVSLPAWVCTTFHTSGYDTQAIVQNNDSTEYGLFQINNKIWCKDDQNPHSSNICNISCDKFLDDDLTDDIMCVKKILDKVGINYWLAHKALCSEKLDQWLCEKL [E44A]: the Tm turned out to be 19.5 °C. Also, for the setting “CaCl2 1 mM”, the Tm came out at 60.9 °C and the “change of melting temperature, mutant” value was 1.1 °C.

Take MMSFVSLLLVGILFHATQAEQLTKCEVFRELKDLKGYGGVSLPEWVCTTFHTSGYNTQAIVQNNDSTEYGLFQINNKIWCKDDQNPHSSNICNISCDKFLDDDLTDDIMCVKKILDKVGINYWLAHKALCSEKLDQWLCEKL [D56N]: the Tm was determined as 31.7 °C. For the same variant, for the setting “CaCl2 1 mM”, the Tm is 74.2 °C and the “change of melting temperature, mutant” value is 14.4 °C.
